Like-named read-outs stand apart in the source and are kept apart here.
T1: human B7-H3 on human tumor cells (MCF-7, HT29, NCI-N87, HCC1806, HCC827) (human, UniProt Q5ZPR3 29-534)
T1 construct: whole, on cells
T1 sequence (looked up): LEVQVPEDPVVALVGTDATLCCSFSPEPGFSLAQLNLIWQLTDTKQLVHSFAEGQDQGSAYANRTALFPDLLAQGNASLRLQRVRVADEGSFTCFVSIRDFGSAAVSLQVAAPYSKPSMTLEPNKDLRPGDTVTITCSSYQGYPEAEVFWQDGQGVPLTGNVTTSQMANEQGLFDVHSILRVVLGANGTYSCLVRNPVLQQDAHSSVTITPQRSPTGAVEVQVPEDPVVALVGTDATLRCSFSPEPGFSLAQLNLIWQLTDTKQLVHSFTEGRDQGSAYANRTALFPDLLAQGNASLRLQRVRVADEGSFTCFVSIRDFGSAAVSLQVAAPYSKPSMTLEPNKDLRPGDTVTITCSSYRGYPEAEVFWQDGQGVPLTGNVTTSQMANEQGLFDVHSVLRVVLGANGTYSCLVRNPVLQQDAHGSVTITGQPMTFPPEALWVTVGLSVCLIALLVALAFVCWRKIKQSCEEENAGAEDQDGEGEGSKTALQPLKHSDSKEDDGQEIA

T2: human B7-H3-4Ig-His protein (human, UniProt Q5ZPR3 29-466)
T2 construct: extracellular domain; Made in HEK293-EBNA cells
T2 sequence: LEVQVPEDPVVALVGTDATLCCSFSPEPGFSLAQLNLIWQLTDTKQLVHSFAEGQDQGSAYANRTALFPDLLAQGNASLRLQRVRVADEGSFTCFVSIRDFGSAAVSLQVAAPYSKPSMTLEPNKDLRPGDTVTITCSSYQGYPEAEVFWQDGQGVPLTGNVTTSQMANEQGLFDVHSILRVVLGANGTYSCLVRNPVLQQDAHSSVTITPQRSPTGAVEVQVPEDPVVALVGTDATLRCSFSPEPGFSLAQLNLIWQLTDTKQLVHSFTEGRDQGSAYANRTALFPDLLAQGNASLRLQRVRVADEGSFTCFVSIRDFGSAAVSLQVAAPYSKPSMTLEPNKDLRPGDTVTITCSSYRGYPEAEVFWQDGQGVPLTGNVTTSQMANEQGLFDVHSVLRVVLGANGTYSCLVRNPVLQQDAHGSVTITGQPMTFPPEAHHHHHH

T3: monkey B7-H3-4Ig-His protein (monkey)
T3 chain: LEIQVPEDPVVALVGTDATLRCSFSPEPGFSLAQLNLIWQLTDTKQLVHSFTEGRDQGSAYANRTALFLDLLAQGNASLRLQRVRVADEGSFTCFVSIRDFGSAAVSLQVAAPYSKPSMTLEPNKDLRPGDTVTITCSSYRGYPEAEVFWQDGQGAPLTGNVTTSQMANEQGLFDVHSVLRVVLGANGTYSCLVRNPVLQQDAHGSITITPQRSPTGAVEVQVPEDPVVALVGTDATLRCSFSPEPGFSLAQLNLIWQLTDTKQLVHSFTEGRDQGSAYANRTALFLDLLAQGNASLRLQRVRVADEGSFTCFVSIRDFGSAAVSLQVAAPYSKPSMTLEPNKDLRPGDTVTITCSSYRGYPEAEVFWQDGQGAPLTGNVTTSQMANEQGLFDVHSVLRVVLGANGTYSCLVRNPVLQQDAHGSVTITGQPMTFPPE

B1: anti-human-B7-H3 chimeric antibody 20G11G6 (antibody, V domains shown)
VH: QVQLQESGPGLVKPSGTLSLTCAVSGGSNSSSNWWTWVRQSPGKGLEWIGEISPTGFTSYSPSLKSRVTISVDKSKTQFSLNLSSVTAADTAVYYCARDRLYFDFWGQGTLVTVSS
VL: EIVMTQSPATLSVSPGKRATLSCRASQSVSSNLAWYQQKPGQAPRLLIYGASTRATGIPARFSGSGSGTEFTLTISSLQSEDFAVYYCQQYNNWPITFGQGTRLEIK
notes: Purified from hybridoma of H2L2 transgenic mice: human variable regions with constant regions of rat origin
B2: anti-human-B7-H3 human antibody 2# (antibody, human IgG1, kappa, V domains shown)
VH: QVQLQESGPGLVKPSGTLSLTCAVSGGSNSSSNWWTWVRQSPGKGLEWIGEISPTGFTSYSPSLKSRVTISVDKSKTQFSLNLSSVTAADTAVYYCARDRLYFDFWGQGTLVTVSS
VL: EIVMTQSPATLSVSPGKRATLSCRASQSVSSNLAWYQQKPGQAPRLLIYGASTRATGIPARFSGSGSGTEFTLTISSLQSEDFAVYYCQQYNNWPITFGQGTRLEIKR
notes: also called 20G11G6/2#

Experiments:
[1] = target: T1, human B7-H3 on human tumor cells …; assay: flow cytometry on MCF-7 cells
[2] = target: T2, human B7-H3-4Ig-His protein; assay: ELISA, antigen coated at 1 ug/ml
[3] = target: T3, monkey B7-H3-4Ig-His protein; assay: ELISA, antigen coated at 1 ug/ml
[4] = target: T2, human B7-H3-4Ig-His protein; assay: ELISA, antigen coated at 1 ug/ml; remark: listed apart in the source
[5] = target: T3, monkey B7-H3-4Ig-His protein; assay: ELISA, antigen coated at 1 ug/ml

| Binder | EC50 [1] [µg/mL] | EC50 [2] [µg/mL] | EC50 [3] [µg/mL] | EC50 [4] [µg/mL] | EC50 [5] [µg/mL] |
| --- | --- | --- | --- | --- | --- |
| B1 | 0.228 | 0.0165 | 0.0213 |  |  |
| B2 |  |  |  | 0.00297 | 0.00394 |
